Measured values published in PMC8622885.

Target: thermostable exoshell (tES) (Archaeoglobus fulgidus) (UniProt O29424)
Assay: AUC; unpublished observations; no conditions given

Chain of UniProt O29424 (O29424 entry or part of it): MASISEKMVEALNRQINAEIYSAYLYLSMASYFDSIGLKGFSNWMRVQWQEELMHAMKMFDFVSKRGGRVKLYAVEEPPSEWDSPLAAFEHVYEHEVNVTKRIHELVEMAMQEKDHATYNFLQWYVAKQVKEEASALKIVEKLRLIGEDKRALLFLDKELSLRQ

Substance: horseradish peroxidase (HRP) (from UniProt P00433 31-338) (enzyme)
- stoichiometry N (HRP molecules per tES): 2
